Test results: publication PMC9482650, “Quantitative fragmentomics allow affinity mapping of interactomes” (Nature Communications, 2022)
Values belong to the binder of their own block, whether it stands above or below them.

Experiments:
Experiment in all cases: holdup assay
Set-up in all cases: key: below the threshold = too weak to quantify, mostly under pKd 3.1 to 4
DFNB31_3, Q9P202 = target: T1, DFNB31_3, Q9P202
T1 sequence (Q9P202 811-907, limits assumed, looked up): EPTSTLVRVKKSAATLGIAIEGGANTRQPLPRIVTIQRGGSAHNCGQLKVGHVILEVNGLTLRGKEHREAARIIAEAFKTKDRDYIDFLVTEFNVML

FRMPD2_2, Q68DX3 = target: FRMPD2_2, Q68DX3
ARHGEF11, O15085 = target: T2, ARHGEF11, O15085
T2 sequence (O15085 42-136, limits assumed, looked up): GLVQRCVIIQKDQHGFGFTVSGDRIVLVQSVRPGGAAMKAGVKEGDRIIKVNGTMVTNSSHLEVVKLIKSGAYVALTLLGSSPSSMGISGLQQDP

DFNB31_1, Q9P202 = target: T3, DFNB31_1, Q9P202
T3 sequence (Q9P202 135-233, limits assumed, looked up): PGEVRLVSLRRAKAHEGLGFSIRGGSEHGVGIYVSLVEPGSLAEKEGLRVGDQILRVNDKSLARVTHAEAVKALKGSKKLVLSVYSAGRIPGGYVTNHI

IL16_1, Q14005 = target: IL16_1, Q14005
GRIP2_4, Q9C0E4 = target: GRIP2_4, Q9C0E4
SNTG1, Q9NSN8 = target: T4, SNTG1, Q9NSN8
T4 sequence (Q9NSN8 52-150, limits assumed, looked up): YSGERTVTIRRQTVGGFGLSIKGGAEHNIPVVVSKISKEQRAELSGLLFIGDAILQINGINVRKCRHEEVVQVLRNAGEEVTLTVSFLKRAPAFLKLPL

DLG1_3, Q12959 = target: DLG1_3, Q12959
PDZRN4_1, Q6ZMN7 = target: PDZRN4_1, Q6ZMN7
DLG2_2, Q15700 = target: DLG2_2, Q15700
HTRA1, Q92743 = target: HTRA1, Q92743
LIMK2, P53671 = target: LIMK2, P53671
Inadl_8, Q8NI35 = target: Inadl_8, Q8NI35
RHPN1, Q8TCX5 = target: T5, RHPN1, Q8TCX5
T5 sequence (Q8TCX5 508-602, limits assumed, looked up): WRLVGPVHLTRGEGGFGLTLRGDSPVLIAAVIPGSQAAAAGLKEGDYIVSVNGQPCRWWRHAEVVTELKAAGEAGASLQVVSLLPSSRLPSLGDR

PARD3_3, Q8TEW0 = target: PARD3_3, Q8TEW0
DVL3, Q92997 = target: T6, DVL3, Q92997
T6 sequence (Q92997 244-331, limits assumed, looked up): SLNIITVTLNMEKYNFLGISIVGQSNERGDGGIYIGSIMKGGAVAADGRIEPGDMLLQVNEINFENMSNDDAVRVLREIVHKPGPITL

RAPGEF6, Q8TEU7 = target: T7, RAPGEF6, Q8TEU7
T7 sequence (Q8TEU7 525-625, limits assumed, looked up): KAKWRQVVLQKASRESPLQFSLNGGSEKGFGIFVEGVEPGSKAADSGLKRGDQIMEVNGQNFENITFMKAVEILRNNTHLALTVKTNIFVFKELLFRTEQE

DLG1_1, Q12959 = target: DLG1_1, Q12959
GRIP1_3, Q9Y3R0 = target: T8, GRIP1_3, Q9Y3R0
T8 sequence (Q9Y3R0 247-346, limits assumed, looked up): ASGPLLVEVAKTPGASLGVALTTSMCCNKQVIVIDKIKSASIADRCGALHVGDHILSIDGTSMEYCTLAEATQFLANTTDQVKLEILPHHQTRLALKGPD

GRIP2_3, Q9C0E4 = target: GRIP2_3, Q9C0E4
LIN7C, Q9NUP9 = target: T9, LIN7C, Q9NUP9
T9 sequence (Q9NUP9 88-185, limits assumed, looked up): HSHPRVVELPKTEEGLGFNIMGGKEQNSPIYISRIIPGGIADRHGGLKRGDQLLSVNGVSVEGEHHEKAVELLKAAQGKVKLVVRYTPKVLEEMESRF

DLG4_2, P78352 = target: DLG4_2, P78352
TIAM2, Q8IVF5 = target: T10, TIAM2, Q8IVF5
T10 sequence (Q8IVF5 885-986, limits assumed, looked up): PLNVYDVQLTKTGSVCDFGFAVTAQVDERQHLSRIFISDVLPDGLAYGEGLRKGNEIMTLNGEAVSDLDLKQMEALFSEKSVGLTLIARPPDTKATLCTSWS

Inadl_2, Q8NI35 = target: Inadl_2, Q8NI35
MAGI2_3, Q86UL8 = target: MAGI2_3, Q86UL8
SNTG2, Q9NY99 = target: T11, SNTG2, Q9NY99
T11 sequence (Q9NY99 68-166, limits assumed, looked up): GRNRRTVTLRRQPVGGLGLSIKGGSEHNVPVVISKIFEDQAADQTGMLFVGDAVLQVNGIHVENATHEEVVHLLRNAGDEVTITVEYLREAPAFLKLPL

DLG5_1, Q8TDM6 = target: DLG5_1, Q8TDM6
[1] = plain residues with an end cap or a label only (N-terminal biotin on a linker: ttds)
[2] = plain residues with an end cap or a label only (N-terminal biotin on a linker: ahx)
[3] = plain residues with an end cap or a label only (N-terminal biotin on a linker: ado-ado)

Chain of FRMPD2_2, Q68DX3 (Q68DX3 944-1038): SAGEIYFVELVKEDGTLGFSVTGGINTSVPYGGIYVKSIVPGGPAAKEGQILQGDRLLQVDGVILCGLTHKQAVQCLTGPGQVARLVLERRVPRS
Chain of GRIP2_3, Q9C0E4 (Q9C0E4 238-339): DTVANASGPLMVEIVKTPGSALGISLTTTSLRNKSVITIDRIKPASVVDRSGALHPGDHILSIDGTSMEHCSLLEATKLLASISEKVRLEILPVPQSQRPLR
Chain of HTRA1, Q92743 (Q92743 360-477): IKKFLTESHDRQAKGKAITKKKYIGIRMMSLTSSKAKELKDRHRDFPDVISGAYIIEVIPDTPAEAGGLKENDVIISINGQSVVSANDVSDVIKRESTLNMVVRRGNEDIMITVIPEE
Chain of LIMK2, P53671 (P53671 143-248): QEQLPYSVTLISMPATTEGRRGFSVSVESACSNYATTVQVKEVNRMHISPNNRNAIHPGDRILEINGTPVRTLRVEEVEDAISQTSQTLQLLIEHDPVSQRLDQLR
Chain of PARD3_3, Q8TEW0 (Q8TEW0 582-685): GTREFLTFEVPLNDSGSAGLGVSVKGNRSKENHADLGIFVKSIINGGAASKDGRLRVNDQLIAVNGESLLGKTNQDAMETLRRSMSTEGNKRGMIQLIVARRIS
Chain of DLG2_2, Q15700 (Q15700 189-283): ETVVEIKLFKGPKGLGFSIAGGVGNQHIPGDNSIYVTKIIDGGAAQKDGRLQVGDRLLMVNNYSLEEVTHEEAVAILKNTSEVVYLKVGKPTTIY
Chain of PDZRN4_1, Q6ZMN7 (Q6ZMN7 213-318): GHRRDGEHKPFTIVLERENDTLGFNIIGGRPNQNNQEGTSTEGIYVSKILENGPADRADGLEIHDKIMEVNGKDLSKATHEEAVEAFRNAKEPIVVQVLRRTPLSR
Chain of GRIP2_4, Q9C0E4 (Q9C0E4 446-548): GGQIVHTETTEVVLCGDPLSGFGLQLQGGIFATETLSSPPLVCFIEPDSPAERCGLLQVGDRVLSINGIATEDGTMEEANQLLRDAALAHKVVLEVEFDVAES
Chain of MAGI2_3, Q86UL8 (Q86UL8 600-682): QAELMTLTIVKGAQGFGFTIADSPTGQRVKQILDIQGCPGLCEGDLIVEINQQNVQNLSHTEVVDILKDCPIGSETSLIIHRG
Chain of Inadl_2, Q8NI35 (Q8NI35 238-335): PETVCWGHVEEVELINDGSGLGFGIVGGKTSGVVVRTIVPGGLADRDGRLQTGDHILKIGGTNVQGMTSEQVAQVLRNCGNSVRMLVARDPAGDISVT
Chain of DLG4_2, P78352 (P78352 155-259): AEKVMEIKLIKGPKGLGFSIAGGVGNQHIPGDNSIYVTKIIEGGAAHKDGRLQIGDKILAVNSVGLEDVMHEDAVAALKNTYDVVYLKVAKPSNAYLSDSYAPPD
Chain of Inadl_8, Q8NI35 (Q8NI35 1425-1530): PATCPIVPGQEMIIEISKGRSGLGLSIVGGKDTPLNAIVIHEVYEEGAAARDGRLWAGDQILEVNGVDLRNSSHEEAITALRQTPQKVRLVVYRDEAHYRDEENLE
Chain of IL16_1, Q14005 (Q14005 210-306): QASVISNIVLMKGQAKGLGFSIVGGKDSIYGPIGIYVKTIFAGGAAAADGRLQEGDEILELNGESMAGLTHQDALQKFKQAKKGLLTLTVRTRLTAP
Chain of DLG5_1, Q8TDM6 (Q8TDM6 617-713): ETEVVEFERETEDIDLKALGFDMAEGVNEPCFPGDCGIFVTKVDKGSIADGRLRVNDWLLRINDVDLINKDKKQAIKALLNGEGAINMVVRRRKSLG

Binder: SGGKRKETLV [NET1, Q7Z628]
pKd (DFNB31_3, Q9P202; [1]): below the threshold
pKd (FRMPD2_2, Q68DX3; [1]): 3.67
pKd (ARHGEF11, O15085; [1]): 4.23
pKd (DFNB31_1, Q9P202; [1]): below the threshold
pKd (IL16_1, Q14005; [1]): below the threshold
pKd (GRIP2_4, Q9C0E4; [1]): below the threshold
pKd (SNTG1, Q9NSN8; [1]): 3.83
pKd (DLG1_3, Q12959; [1]): 4.44
pKd (PDZRN4_1, Q6ZMN7; [1]): 4.31
pKd (DLG2_2, Q15700; [1]): 5.26
pKd (HTRA1, Q92743; [1]): below the threshold
pKd (LIMK2, P53671; [1]): below the threshold
pKd (Inadl_8, Q8NI35; [1]): 3.63
pKd (RHPN1, Q8TCX5; [1]): 3.65
pKd (PARD3_3, Q8TEW0; [1]): below the threshold
pKd (DVL3, Q92997; [1]): below the threshold
pKd (RAPGEF6, Q8TEU7; [1]): below the threshold
pKd (DLG1_1, Q12959; [1]): 5.09
pKd (GRIP1_3, Q9Y3R0; [1]): below the threshold
pKd (GRIP2_3, Q9C0E4; [1]): below the threshold
pKd (LIN7C, Q9NUP9; [1]): 4.4
pKd (DLG4_2, P78352; [1]): 5.77
pKd (TIAM2, Q8IVF5; [1]): below the threshold
pKd (Inadl_2, Q8NI35; [1]): below the threshold
pKd (MAGI2_3, Q86UL8; [1]): 4.5
pKd (SNTG2, Q9NY99; [1]): 4.17
pKd (DLG5_1, Q8TDM6; [1]): below the threshold

Binder: ELKAEDEVQI [DCHS2, Q6V1P9]
pKd (DFNB31_3, Q9P202; [3]): below the threshold
pKd (FRMPD2_2, Q68DX3; [3]): below the threshold
pKd (ARHGEF11, O15085; [3]): below the threshold
pKd (DFNB31_1, Q9P202; [3]): below the threshold
pKd (IL16_1, Q14005; [3]): below the threshold
pKd (GRIP2_4, Q9C0E4; [3]): below the threshold
pKd (SNTG1, Q9NSN8; [3]): below the threshold
pKd (DLG1_3, Q12959; [3]): below the threshold
pKd (PDZRN4_1, Q6ZMN7; [3]): below the threshold
pKd (DLG2_2, Q15700; [3]): below the threshold
pKd (HTRA1, Q92743; [3]): 4.25
pKd (LIMK2, P53671; [3]): below the threshold
pKd (Inadl_8, Q8NI35; [3]): below the threshold
pKd (RHPN1, Q8TCX5; [3]): below the threshold
pKd (PARD3_3, Q8TEW0; [3]): 4.74
pKd (DVL3, Q92997; [3]): below the threshold
pKd (RAPGEF6, Q8TEU7; [3]): below the threshold
pKd (DLG1_1, Q12959; [3]): below the threshold
pKd (GRIP1_3, Q9Y3R0; [3]): below the threshold
pKd (GRIP2_3, Q9C0E4; [3]): below the threshold
pKd (LIN7C, Q9NUP9; [3]): below the threshold
pKd (DLG4_2, P78352; [3]): below the threshold
pKd (TIAM2, Q8IVF5; [3]): 3.52
pKd (Inadl_2, Q8NI35; [3]): below the threshold
pKd (MAGI2_3, Q86UL8; [3]): below the threshold
pKd (SNTG2, Q9NY99; [3]): below the threshold
pKd (DLG5_1, Q8TDM6; [3]): below the threshold

Binder: SAPATLSSRA [PDLIM2, Q96JY6]
pKd (DFNB31_3, Q9P202; [2]): below the threshold
pKd (FRMPD2_2, Q68DX3; [2]): below the threshold
pKd (ARHGEF11, O15085; [2]): below the threshold
pKd (DFNB31_1, Q9P202; [2]): below the threshold
pKd (IL16_1, Q14005; [2]): below the threshold
pKd (GRIP2_4, Q9C0E4; [2]): below the threshold
pKd (SNTG1, Q9NSN8; [2]): below the threshold
pKd (DLG1_3, Q12959; [2]): below the threshold
pKd (PDZRN4_1, Q6ZMN7; [2]): below the threshold
pKd (DLG2_2, Q15700; [2]): below the threshold
pKd (HTRA1, Q92743; [2]): below the threshold
pKd (LIMK2, P53671; [2]): below the threshold
pKd (Inadl_8, Q8NI35; [2]): below the threshold
pKd (RHPN1, Q8TCX5; [2]): below the threshold
pKd (PARD3_3, Q8TEW0; [2]): below the threshold
pKd (DVL3, Q92997; [2]): below the threshold
pKd (RAPGEF6, Q8TEU7; [2]): below the threshold
pKd (DLG1_1, Q12959; [2]): below the threshold
pKd (GRIP1_3, Q9Y3R0; [2]): below the threshold
pKd (GRIP2_3, Q9C0E4; [2]): below the threshold
pKd (LIN7C, Q9NUP9; [2]): below the threshold
pKd (DLG4_2, P78352; [2]): below the threshold
pKd (TIAM2, Q8IVF5; [2]): below the threshold
pKd (Inadl_2, Q8NI35; [2]): below the threshold
pKd (MAGI2_3, Q86UL8; [2]): below the threshold
pKd (SNTG2, Q9NY99; [2]): below the threshold
pKd (DLG5_1, Q8TDM6; [2]): below the threshold

The next lines start with the values.

pKd (DFNB31_3, Q9P202; [1]): below the threshold
pKd (FRMPD2_2, Q68DX3; [1]): 4.3
pKd (ARHGEF11, O15085; [1]): 5.24
pKd (DFNB31_1, Q9P202; [1]): 4.97
pKd (IL16_1, Q14005; [1]): 4.29
pKd (GRIP2_4, Q9C0E4; [1]): below the threshold
pKd (SNTG1, Q9NSN8; [1]): 5.41
pKd (DLG1_3, Q12959; [1]): 4.22
pKd (PDZRN4_1, Q6ZMN7; [1]): 5.58
pKd (DLG2_2, Q15700; [1]): 3.88
pKd (HTRA1, Q92743; [1]): 4.25
pKd (LIMK2, P53671; [1]): below the threshold
pKd (Inadl_8, Q8NI35; [1]): below the threshold
pKd (RHPN1, Q8TCX5; [1]): 5
pKd (PARD3_3, Q8TEW0; [1]): 4.44
pKd (DVL3, Q92997; [1]): below the threshold
pKd (RAPGEF6, Q8TEU7; [1]): below the threshold
pKd (DLG1_1, Q12959; [1]): 4.43
pKd (GRIP1_3, Q9Y3R0; [1]): below the threshold
pKd (GRIP2_3, Q9C0E4; [1]): below the threshold
pKd (LIN7C, Q9NUP9; [1]): 5.21
pKd (DLG4_2, P78352; [1]): 4.22
pKd (TIAM2, Q8IVF5; [1]): below the threshold
pKd (Inadl_2, Q8NI35; [1]): below the threshold
pKd (MAGI2_3, Q86UL8; [1]): below the threshold
pKd (SNTG2, Q9NY99; [1]): 5.2
pKd (DLG5_1, Q8TDM6; [1]): below the threshold
Binder: SSIDLWETAL [SLC15A5, A6NIM6]

pKd (DFNB31_3, Q9P202; [2]): below the threshold
pKd (FRMPD2_2, Q68DX3; [2]): 4.85
pKd (ARHGEF11, O15085; [2]): 4.06
pKd (DFNB31_1, Q9P202; [2]): below the threshold
pKd (IL16_1, Q14005; [2]): 4.23
pKd (GRIP2_4, Q9C0E4; [2]): below the threshold
pKd (SNTG1, Q9NSN8; [2]): 4.07
pKd (DLG1_3, Q12959; [2]): below the threshold
pKd (PDZRN4_1, Q6ZMN7; [2]): below the threshold
pKd (DLG2_2, Q15700; [2]): 3.57
pKd (HTRA1, Q92743; [2]): 3.94
pKd (LIMK2, P53671; [2]): below the threshold
pKd (Inadl_8, Q8NI35; [2]): 3.86
pKd (RHPN1, Q8TCX5; [2]): 4.42
pKd (PARD3_3, Q8TEW0; [2]): below the threshold
pKd (DVL3, Q92997; [2]): below the threshold
pKd (RAPGEF6, Q8TEU7; [2]): below the threshold
pKd (DLG1_1, Q12959; [2]): below the threshold
pKd (GRIP1_3, Q9Y3R0; [2]): below the threshold
pKd (GRIP2_3, Q9C0E4; [2]): below the threshold
pKd (LIN7C, Q9NUP9; [2]): below the threshold
pKd (DLG4_2, P78352; [2]): 4.05
pKd (TIAM2, Q8IVF5; [2]): below the threshold
pKd (Inadl_2, Q8NI35; [2]): below the threshold
pKd (MAGI2_3, Q86UL8; [2]): 4.15
pKd (SNTG2, Q9NY99; [2]): below the threshold
pKd (DLG5_1, Q8TDM6; [2]): below the threshold
Binder: ADENEQVSAV [RAPGEF6, Q8TEU7]
